Laboratory results reported in patent publication US20240261333A1 (published 2024).

B1: N-terminal FLAG tagged B3GNT2 (enzyme, human, UniProt Q9NY97 1-397, looked up)
chain: MSVGRRRIKLLGILMMANVFIYFIMEVSKSSSQEKNGKGEVIIPKEKFWKISTPPEAYWNREQEKLNRQYNPILSMLTNQTGEAGRLSNISHLNYCEPDLRVTSVVTGFNNLPDRFKDFLLYLRCRNYSLLIDQPDKCAKKPFLLLAIKSLTPHFARRQAIRESWGQESNAGNQTVVRVFLLGQTPPEDNHPDLSDMLKFESEKHQDILMWNYRDTFFNLSLKEVLFLRWVSTSCPDTEFVFKGDDDVFVNTHHILNYLNSLSKTKAKDLFIGDVIHNAGPHRDKKLKYYIPEVVYSGLYPPYAGGGGFLYSGHLALRLYHITDQVHLYPIDDVYTGMCLQKLGLVPEKHKGFRTFDIEEKNKNNICSYVDLMLVHSRKPQEMIDIWSQLQSAHLKC
notes: FLAG-tagged ORF overexpressed in cells; pulled down from lysate with mouse anti-FLAG; also called N-FLAG B3GNT2; N-term FLAG; not shown: N-terminal FLAG tag
B2: N-terminal FLAG tagged B3GNT2 (enzyme, human, UniProt Q9NY97 1-397, looked up)
chain: B1 chain
notes: FLAG-tagged ORF overexpressed in A375 cells; pulled down from the lysate with mouse anti-FLAG; also called N-FLAG B3GNT2; N-term FLAG; not shown: N-terminal FLAG tag

How the values were obtained:
Test in all cases: co-IP with anti-FLAG, N-FLAG B3GNT2, mass spectrometry
CCT3 = target: T1, CCT3 (human, UniProt P49368 1-545)
T1 construct: also called NP_005989.3
T1 sequence (looked up): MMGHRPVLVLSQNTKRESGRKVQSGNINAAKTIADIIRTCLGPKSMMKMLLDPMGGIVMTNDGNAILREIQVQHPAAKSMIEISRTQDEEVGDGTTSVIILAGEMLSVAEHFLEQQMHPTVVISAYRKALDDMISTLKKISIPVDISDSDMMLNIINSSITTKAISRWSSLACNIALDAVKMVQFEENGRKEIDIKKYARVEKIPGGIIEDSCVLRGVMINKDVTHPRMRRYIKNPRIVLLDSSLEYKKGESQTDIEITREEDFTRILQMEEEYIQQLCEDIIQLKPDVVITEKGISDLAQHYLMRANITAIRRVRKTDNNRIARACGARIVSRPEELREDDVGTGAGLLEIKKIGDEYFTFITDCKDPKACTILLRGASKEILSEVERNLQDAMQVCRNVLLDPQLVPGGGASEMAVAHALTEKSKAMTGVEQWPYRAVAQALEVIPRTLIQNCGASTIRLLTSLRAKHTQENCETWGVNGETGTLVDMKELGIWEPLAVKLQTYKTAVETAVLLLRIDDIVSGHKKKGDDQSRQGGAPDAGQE
Experimental: (§1) Cells were plated in 10-cm cell culture dishes and grown to 60-80% confluency. For each condition, two biological replicates were harvested for co-IP. Cells were washed with PBS and 4 mL of lysis buffer (20 mM HEPES, 1% Triton X-100, 150 mM NaCl, 1 mM EDTA, and 10% glycerol) containing protease inhibitor cocktail was added. Cells were scraped and lysate was incubated at 4° C. under rotary agitation for 1 h. Lysate was centrifuged at 14,000×g for 10 min at 4° C. Supernatant was transferred to a new tube and an aliquot was taken as the input. […] For Western blots, 10 μg/mL Chicken Anti-FLAG (Aves labs ET-DY100) and IgY control (R&D Systems AB-101-C) antibodies were biotinylated (Thermo Fisher Scientific 90407) and added to the respective conditions. Lysates with antibodies were incubated at 4° C. under rotary agitation overnight. For each mL of lysate, 50 μL of Pierce Protein A/G Magnetic Beads (Mass spectrometry; Thermo Fisher Scientific 88803) or Pierce Streptavidin Magnetic Beads (Western blot; Thermo Fisher Scientific 88817) was washed twice with lysis buffer. Lysates with antibodies were added to the beads and incubated at 4° C. under rotary agitation for 4 h. Beads were washed with lysis buffer 3 times and resuspended in lysis buffer for storage.
(§2) Magnetic beads were resuspended in 100 mM Tris pH 7.8, reduced, alkylated and digested with trypsin at 37° ° C. overnight. This solution was subjected to solid phase extraction to concentrate the peptides and remove unwanted reagents followed by injection onto a Shimadzu HPLC with fraction collector. Eight fractions were collected and after concentration were injected on a Waters NanoAcquity HPLC equipped with a self-packed Aeris 3 μm C18 analytical column 0.075 mm by 20 cm, (Phenomenex). Peptides were eluted using standard reverse-phase gradients. The effluent from the column was analyzed using a Thermo Orbitrap Elite mass spectrometer (nanospray configuration) operated in a data dependent manner for 54 minutes. The resulting fragmentation spectra were correlated against the known database using Proteome Discover 1.4 (Thermo Fisher Scientific).

TGM1 = target: T2, TGM1 (human, UniProt P22735 1-817, limits assumed)
T2 construct: also called NP_000350.1
T2 sequence (looked up): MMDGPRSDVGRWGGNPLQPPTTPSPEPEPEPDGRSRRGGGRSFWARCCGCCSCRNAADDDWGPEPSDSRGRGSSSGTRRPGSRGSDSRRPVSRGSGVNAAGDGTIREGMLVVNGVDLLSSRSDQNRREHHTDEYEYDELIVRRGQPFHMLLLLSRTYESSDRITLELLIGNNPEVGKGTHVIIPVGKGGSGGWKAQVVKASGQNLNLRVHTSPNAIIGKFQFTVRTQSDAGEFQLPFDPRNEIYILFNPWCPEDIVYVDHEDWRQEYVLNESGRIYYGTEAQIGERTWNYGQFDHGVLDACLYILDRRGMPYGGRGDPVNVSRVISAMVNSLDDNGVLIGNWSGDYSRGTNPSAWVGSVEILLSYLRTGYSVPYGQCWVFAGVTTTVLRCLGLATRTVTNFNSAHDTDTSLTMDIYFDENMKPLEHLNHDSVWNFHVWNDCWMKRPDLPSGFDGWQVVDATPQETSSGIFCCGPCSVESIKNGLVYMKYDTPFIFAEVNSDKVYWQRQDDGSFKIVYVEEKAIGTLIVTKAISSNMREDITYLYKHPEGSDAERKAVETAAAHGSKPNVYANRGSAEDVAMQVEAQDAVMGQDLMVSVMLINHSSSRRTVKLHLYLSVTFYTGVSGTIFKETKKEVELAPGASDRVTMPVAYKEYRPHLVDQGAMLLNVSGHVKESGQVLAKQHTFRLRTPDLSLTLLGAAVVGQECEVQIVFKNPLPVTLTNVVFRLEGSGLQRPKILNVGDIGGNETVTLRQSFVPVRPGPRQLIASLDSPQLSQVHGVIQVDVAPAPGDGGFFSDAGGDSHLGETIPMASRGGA
Experimental: as §1, §2

TM9SF1 = target: T3, TM9SF1 (human, UniProt O15321-2 28-489, limits assumed)
T3 construct: also called NP_001014842.1 (+1)
Experimental: as §1, §2

T3 sequence (O15321 other isoform, or with tags, fused parts or gaps limits assumed): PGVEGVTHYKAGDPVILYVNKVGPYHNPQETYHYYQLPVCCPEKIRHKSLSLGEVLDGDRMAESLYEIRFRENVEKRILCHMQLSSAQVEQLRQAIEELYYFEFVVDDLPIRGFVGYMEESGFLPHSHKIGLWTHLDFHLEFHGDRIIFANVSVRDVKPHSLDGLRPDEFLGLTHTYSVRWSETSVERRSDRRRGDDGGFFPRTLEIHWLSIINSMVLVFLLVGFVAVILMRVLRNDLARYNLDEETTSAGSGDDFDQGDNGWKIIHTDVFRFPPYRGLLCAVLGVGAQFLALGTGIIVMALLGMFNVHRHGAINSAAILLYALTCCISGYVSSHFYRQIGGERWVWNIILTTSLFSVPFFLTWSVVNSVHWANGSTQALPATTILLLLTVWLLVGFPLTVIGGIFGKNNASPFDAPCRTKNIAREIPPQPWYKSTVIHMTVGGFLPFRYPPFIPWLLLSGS

| Binder | co-IP mass spectrometry count (CCT3) | co-IP/MS count, N-term FLAG (TGM1) | co-IP/MS count, N-term FLAG (TM9SF1) |
| --- | --- | --- | --- |
| B1 | 0 | – | – |
| B2 | – | 17 | 0 |
